Experimental data taken from US20220025012A1 (HANMI PHARM, published 2022).
Square brackets hold non-standard residues; d marks the D form. Ends that are not written are not given here. αMeE = C[C@](N)(CCC(=O)O)C(=O)O

Columns and labels:
human GLP-1 receptor = human GLP-1 receptor (human, UniProt P43220 24-463); test: cell-based or functional assay
human glucagon receptor = human glucagon receptor (human, UniProt P47871 26-477); test: cell-based or functional assay
Sequence of human glucagon receptor (P47871 26-477): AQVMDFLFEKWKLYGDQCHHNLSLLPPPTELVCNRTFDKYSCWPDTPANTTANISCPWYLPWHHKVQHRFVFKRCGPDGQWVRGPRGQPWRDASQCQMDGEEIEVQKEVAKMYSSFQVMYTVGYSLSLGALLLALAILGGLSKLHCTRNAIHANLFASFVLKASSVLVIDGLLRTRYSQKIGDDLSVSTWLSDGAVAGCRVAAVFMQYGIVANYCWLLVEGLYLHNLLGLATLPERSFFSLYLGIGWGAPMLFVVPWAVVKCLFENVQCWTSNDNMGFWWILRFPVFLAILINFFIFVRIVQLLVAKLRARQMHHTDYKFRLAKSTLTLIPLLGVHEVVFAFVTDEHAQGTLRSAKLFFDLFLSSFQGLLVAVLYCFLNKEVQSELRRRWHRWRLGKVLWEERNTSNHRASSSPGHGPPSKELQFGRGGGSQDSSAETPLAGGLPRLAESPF

Row | Binder | EC50 (nM), cAMP concentration in CHO cells expressing hGLP-IR (human GLP-1 receptor) [nM] | EC50 (nM), cAMP concentration in CHO cells expressing hGCGR (human glucagon receptor) [nM]
1 | H[αMeE]QGTFTSDYSKYLDECRAKEFVQWLMNT (not fully specified) [glucagon derivative of SEQ ID NO: 13] | 0.27 | 0.23
2 | H[αMeE]QGTFTSDYSKYLDEKCAKEFVQWLMNT (not fully specified) [glucagon derivative of SEQ ID NO: 14] | 0.17 | 0.38
3 | H[αMeE]QGTFTSDYSKYLCEKRAKEFVQWLMNT (not fully specified) [glucagon derivative of SEQ ID NO: 12] | 0.96 | 1.38
